Patent publication US20230272089A1 (SYNTHEKINE, published 2023)

Target: T1, hIL2Rg ECD antigen (human, UniProt P31785 23-262)
T1 construct: Antigen of biopanning and PE-ELISA; also called extracellular domain of human IL2Rg; CD132 ECD
T1 sequence: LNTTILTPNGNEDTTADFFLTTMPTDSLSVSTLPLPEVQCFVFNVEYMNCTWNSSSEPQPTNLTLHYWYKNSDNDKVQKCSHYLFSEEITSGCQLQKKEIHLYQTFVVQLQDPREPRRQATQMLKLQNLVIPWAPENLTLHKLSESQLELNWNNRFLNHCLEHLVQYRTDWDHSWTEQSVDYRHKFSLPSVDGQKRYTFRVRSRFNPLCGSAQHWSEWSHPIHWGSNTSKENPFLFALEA
Assay: periplasmic extract ELISA (PE-ELISA) of phage clones after biopanning

B1: hIL2Rg_VHH-15 (VHH)
VHH: QVQLQESGGGLVQPGGSLRLSCAASGFTFSSAHMSWVRQAPGKGREWIASIYSGGGTFYADSVKGRFTISRDNAKNTLYLQLNSLKAEDTAMYYCATNRLHYYSDDDSLRGQGTQVTVSS
notes: Periplasmic extract of a phage clone, as in the PE-ELISA; not shown: HA/His tag of the pMECS phagemid
B1: binds.
